Our source for the GLP Cyclase EC50 values is patent US20100286365A1.

The target of the test is GLP-1 receptor (GLP-1 cyclase assay of Example 11) (UniProt P32301). The test is described as follows: cell-based or functional assay.
GLP-1 receptor (GLP-1 cyclase assay of Example 11), sequence (P32301 22-463 limits assumed): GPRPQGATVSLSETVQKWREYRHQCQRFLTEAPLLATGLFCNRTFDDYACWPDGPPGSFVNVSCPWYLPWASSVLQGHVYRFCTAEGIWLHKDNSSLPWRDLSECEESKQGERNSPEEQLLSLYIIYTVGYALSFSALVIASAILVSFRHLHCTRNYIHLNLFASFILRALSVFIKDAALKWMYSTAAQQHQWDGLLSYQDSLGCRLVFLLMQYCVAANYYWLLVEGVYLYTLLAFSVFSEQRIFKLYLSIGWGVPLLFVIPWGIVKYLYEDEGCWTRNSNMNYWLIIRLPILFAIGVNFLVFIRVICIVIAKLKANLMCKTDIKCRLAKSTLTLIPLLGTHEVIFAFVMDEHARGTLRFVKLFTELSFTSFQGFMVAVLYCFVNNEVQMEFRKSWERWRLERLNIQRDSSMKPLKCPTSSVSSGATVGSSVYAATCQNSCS

“[^14Leu,^28Gln]Exendin-4-(1-32)-fGLP-1-(33-37)-miniPEG-(S)-2,6-diamino-1-(pyrrolidin-2-cyano-1-yl)hexan-1-amide (peptide)” showed a GLP Cyclase EC50 of 0.017 nM.
